In US20260209325A1 (SCHOLAR ROCK, published 2026):
Blank lines part the entries; values can stand above or below the binder they belong to.

Tests used:
[1] = molecular target: T1, human pro-myostatin (human, UniProt O14793 24-375, biotinylated (in the SPR assay)); experiment: SPR Biacore 8K, biotin-antigen captured
T1 construct: Disulfide-linked homodimer; also called proGDF8 (human)

[2] = molecular target: T2, recombinant human latent myostatin (human, UniProt O14793 24-375, biotinylated (in the Octet pH assay only)); experiment: BLI (Octet Red384): streptavidin biosensors loaded with biotinylated human latent myostatin, antibody association 300 s, dissociation in PBS at pH 7.4 or pH 5.5
T2 construct: also called biotinylated human latent myostatin
Protocol: Binding was performed at pH 7.4 and dissociation at pH 5.5 in an Octet Red384@assay. Streptavidin biosensors were baselined in 1x kinetics buffer (KB) (Sartorius) for one minute, then loaded with 100 nM biotinylated human latent myostatin for five minutes, followed by another baseline step of one minute in 1x KB. Binding of test antibodies was performed for five minutes and then dissociation was performed in PBS at either pH 7.4 or pH 5.5 for five minutes. Analysis was performed using a partial fit, in which full dissociation was projected. Kd at pH 5.5 was divided by Kd at pH 7.4 to calculate pH sensitivity.

[3] = molecular target: T1, human pro-myostatin; experiment: Fab KD, summary Table 11; method and antigen not stated there
[4] = molecular target: T1, human pro-myostatin; experiment: Ab KD, summary Table 11; method and antigen not stated there
[5] = molecular target: T3, murine pro-myostatin (mouse, UniProt O08689 25-376, biotinylated (in the SPR assay)); experiment: SPR Biacore 8K, biotin-antigen captured
T3 construct: also called proGDF8 (mouse); mouse pro-myostatin

[6] = molecular target: T4, cyno pro-myostatin (cynomolgus monkey, Biotinylated for capture in the SPR assay (site not stated). The native form is a disulfide-linked homodimer, partly furin-cleaved; one chain is given.); experiment: SPR Biacore 8K, biotin-antigen captured
T4 construct: also called proGDF8 (cynomolgus); cynomolgus monkey pro-myostatin

[7] = molecular target: human GDF-11 (human, UniProt O95390 299-407, limits assumed); experiment: plate binding assay, OD 450 nm, one antibody concentration that is not given, on Hu-GDF-11 (method not described in the text)
human GDF-11, sequence (O95390 299-407 limits assumed): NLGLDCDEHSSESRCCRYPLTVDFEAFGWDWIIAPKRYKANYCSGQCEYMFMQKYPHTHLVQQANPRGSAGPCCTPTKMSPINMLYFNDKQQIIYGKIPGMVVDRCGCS

[8] = molecular target: T1, human pro-myostatin; experiment: cell-based or functional assay
[9] = molecular target: T2, recombinant human latent myostatin; experiment: cell-based or functional assay
[10] = molecular target: mouse GDF-11 (mouse, UniProt Q9Z1W4 297-405, limits assumed); experiment: plate binding assay, OD 450 nm, one antibody concentration that is not given, on Mu-GDF-11 (method not described in the text)
mouse GDF-11, sequence (Q9Z1W4 297-405 limits assumed): as the sequence (O95390 299-407 limits assumed) above

[11] = molecular target: T2, recombinant human latent myostatin; experiment: cell-based or functional assay; remark: listed apart in the source

- Kd [1]: 0.11 nM
- koff [1]: 0.000577 s⁻¹
- kon [1]: 5.27e+06 M⁻¹ s⁻¹
- fold difference in off-rate (Kd at pH 5.5 / Kd at pH 7.4) [2]: 7.9 fold
B1: Ab138 (antibody, human IgG4 S228P, kappa, V domains shown)
VH: EVQLVESGGGLVQPGGSLRLSCAASGFTFTSYGMSWVRQAPGKGLELVASITGSKGETYYPDSVKGRFTISRDNAKNSLYLQMNSLRAEDTAVYYCARDLLVRFLEWSHYYGMDVWGQGTTVTVSS
VL: DIVMTQSPLSLPVTPGEPASISCRSSQSLLHSSGHNFLHWYLQKPGQSPQLLIYETSNRAPGIPDRFSGSGSGTDFTLKISRVEAEDVGVYYCQQATQFPRPFGGGTKVEIKR

- Kd [3]: 44.4 nM
B2: Ab102 Fab (Fab, V domains shown)
VH: EVQLVESGGGLVQPGGSLRLSCAASGFTFTSYGMSWVRQAPGKGLELVASITGSGGETYYPDSVKGRFTISRDNAKNSLYLQMNSLRAEDTAVYYCARDLLVRFLEWSHYYGMDVWGQGTTVTVSS
VL: DIVMTQSPLSLPVTPGEPASISCRSSQSLLHSSGHNFLHWYLQKPGQSPQLLIYETSNRAPGIPDRFSGSGSGTDFTLKISRVEAEDVGVYYCMQATQFPRPFGGGTKVEIK

- fold difference in off-rate (Kd at pH 5.5 / Kd at pH 7.4) [2]: 26 fold
B3: Ab137 (antibody, human IgG4 S228P, kappa, V domains shown)
VH: EVQLVESGGGLVQPGGSLRLSCAASGFTFSSYGMSWVRQAPGKGLELVASFTGSGGTYYPDSVKGRFTISRDNAKNSLYLQMNSLRAEDTAVYYCARDLLIRFLEWGHYYGMDVWGQGTTVTVSS
VL: DIVMTQSPLSLPVTPGEPASISCRSSQSLLHSSGHNFLHWYLQKPGQSPQLLIYEVSNRVSGVPDRFSGSGSGTDFTLKISRVEAEDVGVYYCMQQTQYPPTFGGGTKVEIKR

- Kd [3]: 53.8 nM
B4: Ab130 Fab (Fab, V domains shown)
VH: EVQLVESGGGLVQPGGSLRLSCAASGFTFTSYGMSWVRQAPGKGLELVASITGSGGETYYPDSVKGRFTISRDNAKNSLYLQMNSLRAEDTAVYYCARDLLVRFLEWSHYYGMDVWGQGTTVTVSS
VL: DIVMTQSPLSLPVTPGEPASISCRSSQSLLHSSGHNFLHWYLQKPGQSPQLLIYETSNRAPGIPDRFSGSGSGTDFTLKISRVEAEDVGVYYCQQATQFPRPFGGGTKVEIK
notes: Fab of Ab130

- Kd [1]: 0.121 nM
- koff [1]: 0.0023 s⁻¹
- kon [1]: 1.9e+07 M⁻¹ s⁻¹
- fold difference in off-rate (Kd at pH 5.5 / Kd at pH 7.4) [2]: 16.3 fold
B5: Ab139 (antibody, human IgG4 S228P, kappa, V domains shown)
VH: EVQLVESGGGLVQPGGSLRLSCAASGFTFSSYGMSWVRQAPGKGLELVASFTGSGAAYYPDSVKGRFTISRDNAKNSLYLQMNSLRAEDTAVYYCARDLLIRFLEWSHYYGMDVWGQGTTVTVSS
VL: DIVMTQSPLSLPVTPGEPASISCRSSQSLLHSSGHNFLHWYLQKPGQSPQLLIYESSNRVSGVPDRFSGSGSGTDFTLKISRVEAEDVGVYYCQQQTQYPPTFGGGTKVEIKR

- Kd [3]: 21.9 nM
B6: Ab105 Fab (Fab, V domains shown)
VH: EVQLVESGGGLVQPGGSLRLSCAASGSAFSSYGMSWVRQAPGKGLELVASIGGTGATYYPDSVKGRFTISRDNAKNSLYLQMNSLRAEDTAVYYCARDLLVRFLEWGHYYGMDVWGQGTTVTVSS
VL: DIVMTQSPLSLPVTPGEPASISCRSSQSLLHSSGYNFLHWYLQKPGQSPQLLIYAASSRAPGIPDRFSGSGSGTDFTLKISRVEAEDVGVYYCMHGGQGPTFGGGTKVEIK
notes: Fab of Ab105

- Kd [3]: 39.5 nM
B7: Fab fragment of Ab109 (Fab, V domains shown)
VH: EVQLVESGGGLVQPGGSLRLSCAASGFTFSSYGMSWVRQAPGKGLELVASFTGSGGTYYPDSVKGRFTISRDNAKNSLYLQMNSLRAEDTAVYYCARDLLIRFLEWSHYYGMDVWGQGTTVTVSS
VL: DIVMTQSPLSLPVTPGEPASISCRSSQSLLHSSGHNFLHWYLQKPGQSPQLLIYEVSNRVSGVPDRFSGSGSGTDFTLKISRVEAEDVGVYYCMQQTQYPPTFGGGTKVEIK
notes: Fab of Ab109 (molecular weight 49.25 kDa); also called Ab109 Fab

- Kd [3]: 19 nM
B8: Ab141 Fab (Fab, V domains shown)
VH: EVQLVESGGGLVQPGGSLRLSCAASGFTFSSYGMSWVRQAPGKGLELVASFTGSGGAYYPDSVKGRFTISRDNAKNSLYLQMNSLRAEDTAVYYCARDLLIRFLEWSHYYGMDVWGQGTTVTVSS
VL: DIVMTQSPLSLPVTPGEPASISCRSSQSLLHSSGHNFLHWYLQKPGQSPQLLIYEVSNRVSGVPDRFSGSGSGTDFTLKISRVEAEDVGVYYCMQQTQYPGTFGGGTKVEIK
notes: Fab of Ab141

- Kd [3]: 61.4 nM
B9: Ab132 Fab (Fab, V domains shown)
VH: EVQLVESGGGLVQPGGSLRLSCAASGFTFSSYGMSWVRQAPGKGLELVASFTGSGGTYYPDSVKGRFTISRDNAKNSLYLQMNSLRAEDTAVYYCARDLLIRFLEWSHYYGMDVWGQGTTVTVSS
VL: DIVMTQSPLSLPVTPGEPASISCRSSQSLLHSSGHNFLHWYLQKPGQSPQLLIYEVSNRVSGVPDRFSGSGSGTDFTLKISRVEAEDVGVYYCQQQTQYPPTFGGGTKVEIK
notes: Fab of Ab132

- Kd [3]: 17.4 nM
B10: Ab131 Fab (Fab, V domains shown)
VH: EVQLVESGGGLVQPGGSLRLSCAASGSAFSSYGMSWVRQAPGKGLELVASIGGTGATYYPDSVKGRFTISRDNAKNSLYLQMNSLRAEDTAVYYCARDLLVRFLEWGHYYGMDVWGQGTTVTVSS
VL: DIVMTQSPLSLPVTPGEPASISCRSSQSLLHSSGYNFLHWYLQKPGQSPQLLIYAASSRAPGIPDRFSGSGSGTDFTLKISRVEAEDVGVYYCQHGGQGPTFGGGTKVEIK
notes: Fab of Ab131

- Kd [3]: 23 nM
B11: Ab133 Fab (Fab, V domains shown)
VH: EVQLVESGGGLVQPGGSLRLSCAASGFTFSSYGMSWVRQAPGKGLELVASFTGSGGAYYPDSVKGRFTISRDNAKNSLYLQMNSLRAEDTAVYYCARDLLIRFLEWSHYYGMDVWGQGTTVTVSS
VL: DIVMTQSPLSLPVTPGEPASISCRSSQSLLHSSGHNFLHWYLQKPGQSPQLLIYEVSNRVSGVPDRFSGSGSGTDFTLKISRVEAEDVGVYYCQQQTQYPGTFGGGTKVEIK
notes: Fab of Ab133

- Kd [4]: 0.683 nM
- Kd [1]: 0.394 nM
- koff [1]: 0.000543 s⁻¹
- kon [1]: 1.38e+06 M⁻¹ s⁻¹
- Kd [5]: 0.618 nM
- koff [5]: 0.000772 s⁻¹
- kon [5]: 1.25e+06 M⁻¹ s⁻¹
- Kd [6]: 0.339 nM
- koff [6]: 0.000539 s⁻¹
- kon [6]: 1.59e+06 M⁻¹ s⁻¹
- binding result [7]: no binding
- IC50 (nM) Pro + Furin [8]: 0.184 nM
- IC50 (nM) Latent + mTLL2 [9]: 0.139 nM
- binding result [10]: no binding
- mTLL2 IC50 [11]: 0.139 nM
B12: Ab123 (antibody, human IgG4 S228P, kappa, V domains shown)
VH: EVQLVESGGGLVQPGGSLRLSCAASGFTFSKYDMSWVRQAPGKGLELVASISSSGGTRYYPDSVKGRFTISRDNAKNSLYLQMNSLRAEDTAVYYCAKDLWVASPGYGMDVWGQGTTVTVSS
VL: DIVMTQSPLSLPVTPGEPASISCRSSQSLLHSSGHNYLHWYLQKPGQSPQLLIYLGSIRAPGVPDRFSGSGSGTDFTLKISRVEAEDVGVYYCMQALLNPPTFGGGTKVEIKR

- Kd [3]: 5.51 nM
B13: Ab123 Fab (Fab, V domains shown)
VH: EVQLVESGGGLVQPGGSLRLSCAASGFTFSKYDMSWVRQAPGKGLELVASISSSGGTRYYPDSVKGRFTISRDNAKNSLYLQMNSLRAEDTAVYYCAKDLWVASPGYGMDVWGQGTTVTVSS
VL: DIVMTQSPLSLPVTPGEPASISCRSSQSLLHSSGHNYLHWYLQKPGQSPQLLIYLGSIRAPGVPDRFSGSGSGTDFTLKISRVEAEDVGVYYCMQALLNPPTFGGGTKVEIKR
notes: Fab of Ab123; also called Ab123 Fab fragment

- Kd [4]: 3.56 nM
- Kd [1]: 0.561 nM
- koff [1]: 0.000122 s⁻¹
- kon [1]: 217000 M⁻¹ s⁻¹
- Kd [5]: 0.748 nM
- koff [5]: 0.000188 s⁻¹
- kon [5]: 251000 M⁻¹ s⁻¹
- Kd [6]: 0.601 nM
- koff [6]: 0.000124 s⁻¹
- kon [6]: 207000 M⁻¹ s⁻¹
- binding result [7]: no binding
- IC50 (nM) Pro + Furin [8]: 1.08 nM
- IC50 (nM) Latent + mTLL2 [9]: 9.22 nM
- binding result [10]: no binding
- mTLL2 IC50 [11]: 9.22 nM
B14: Ab112 (antibody, human IgG4 S228P, kappa, V domains shown)
VH: QVQLVQSGAEVKKPGASVKVSCKVSGGTFGIYAIHWVRQAPGKGLEWMGGTIPVFGTAIYAQKFQGRVTMTEDTSTDTAYMELSSLKSEDTAVYYCASLTGIAAAGTHPARGGMDVWGQGTTVTVSS
VL: DIQMTQSPSSVSASVGDRVTITCRASPSISSYLAWYQQKPGKAPKLLIYAASRLQSGVPSRFSGSGSGTDFTLTISSLQPEDFANYYCQEYLSFPLTFGGGTKVEIKR

- Kd [3]: 6.19 nM
B15: Ab112 Fab (Fab, V domains shown)
VH: QVQLVQSGAEVKKPGASVKVSCKVSGGTFGIYAIHWVRQAPGKGLEWMGGTIPVFGTAIYAQKFQGRVTMTEDTSTDTAYMELSSLKSEDTAVYYCASLTGIAAAGTHPARGGMDVWGQGTTVTVSS
VL: DIQMTQSPSSVSASVGDRVTITCRASPSISSYLAWYQQKPGKAPKLLIYAASRLQSGVPSRFSGSGSGTDFTLTISSLQPEDFANYYCQEYLSFPLTFGGGTKVEIK
notes: Fab of Ab112; also called Ab112 Fab fragment
